Patent US8673850B2, “PCSK9 inhibitors and methods of use thereof” (Institut de Recherches Cliniques de Montreal, priority 2008, dated 2014)

B1: ΔR3: AnxA2 deletion of aa 193-268 (protein)
chain: MSTVHEILCKLSLEGDHSTPPSAYGSVKAYTNFDAERDALNIETAIKTKGVDEVTIVNILTNRSNAQRQDIAFAYQRRTKKELASALKSALSGHLETVILGLLKTPAQYDASELKASMKGLGTDEDSLIEIICSRTNQELQEINRVYKEMYKTDLEKDIISDTSGDFRKLMVALAKGRRAEDGSVIDYELIDYFADRLYDSMKGKGTRDKVLIRIMVSRSEVDMLKIRSEFKRKYGKSLYYYIQQDTKGDYQKALLYLCGGDDYPYDVPDYA
B2: Δ62-75: AnxA2 deletion of aa 62-75 (protein)
chain: MSTVHEILCKLSLEGDHSTPPSAYGSVKAYTNFDAERDALNIETAIKTKGVDEVTIVNILTQRRTKKELASALKSALSGHLETVILGLLKTPAQYDASELKASMKGLGTDEDSLIEIICSRTNQELQEINRVYKEMYKTDLEKDIISDTSGDFRKLMVALAKGRRAEDGSVIDYELIDQDARDLYDAGVKRKGTDVPKWISIMTERSVPHLQKVFDRYKSYSPYDMLESIRKEVKGDLENAFLNLVQCIQNKPLYFADRLYDSMKGKGTRDKVLIRIMVSRSEVDMLKIRSEFKRKYGKSLYYYIQQDTKGDYQKALLYLCGGDDYPYDVPDYA
B3: Δ37-48: AnxA2 deletion of aa 37-48 (protein)
chain: MSTVHEILCKLSLEGDHSTPPSAYGSVKAYTNFDAEKGVDEVTIVNILTNRSNAQRQDIAFAYQRRTKKELASALKSALSGHLETVILGLLKTPAQYDASELKASMKGLGTDEDSLIEIICSRTNQELQEINRVYKEMYKTDLEKDIISDTSGDFRKLMVALAKGRRAEDGSVIDYELIDQDARDLYDAGVKRKGTDVPKWISIMTERSVPHLQKVFDRYKSYSPYDMLESIRKEVKGDLENAFLNLVQCIQNKPLYFADRLYDSMKGKGTRDKVLIRIMVSRSEVDMLKIRSEFKRKYGKSLYYYIQQDTKGDYQKALLYLCGGDDYPYDVPDYA
B4: Δ82-88: AnxA2 deletion of aa 82-88 (protein)
chain: MSTVHEILCKLSLEGDHSTPPSAYGSVKAYTNFDAERDALNIETAIKTKGVDEVTIVNILTNRSNAQRQDIAFAYQRRTKKSALSGHLETVILGLLKTPAQYDASELKASMKGLGTDEDSLIEIICSRTNQELQEINRVYKEMYKTDLEKDIISDTSGDFRKLMVALAKGRRAEDGSVIDYELIDQDARDLYDAGVKRKGTDVPKWISIMTERSVPHLQKVFDRYKSYSPYDMLESIRKEVKGDLENAFLNLVQCIQNKPLYFADRLYDSMKGKGTRDKVLIRIMVSRSEVDMLKIRSEFKRKYGKSLYYYIQQDTKGDYQKALLYLCGGDDYPYDVPDYA
B5: Δ74-88: AnxA2 deletion of aa 74-88 (protein)
chain: MSTVHEILCKLSLEGDHSTPPSAYGSVKAYTNFDAERDALNIETAIKTKGVDEVTIVNILTNRSNAQRQDIAFSALSGHLETVILGLLKTPAQYDASELKASMKGLGTDEDSLIEIICSRTNQELQEINRVYKEMYKTDLEKDIISDTSGDFRKLMVALAKGRRAEDGSVIDYELIDQDARDLYDAGVKRKGTDVPKWISIMTERSVPHLQKVFDRYKSYSPYDMLESIRKEVKGDLENAFLNLVQCIQNKPLYFADRLYDSMKGKGTRDKVLIRIMVSRSEVDMLKIRSEFKRKYGKSLYYYIQQDTKGDYQKALLYLCGGDDYPYDVPDYA
B6: ΔR2: AnxA2 deletion of aa 109-192 (protein)
chain: MSTVHEILCKLSLEGDHSTPPSAYGSVKAYTNFDAERDALNIETAIKTKGVDEVTIVNILTNRSNAQRQDIAFAYQRRTKKELASALKSALSGHLETVILGLLKTPAQQDARDLYDAGVKRKGTDVPKWISIMTERSVPHLQKVFDRYKSYSPYDMLESIRKEVKGDLENAFLNLVQCIQNKPLYFADRLYDSMKGKGTRDKVLIRIMVSRSEVDMLKIRSEFKRKYGKSLYYYIQQDTKGDYQKALLYLCGGDDYPYDVPDYA
B7: ΔR1: AnxA2 deletion of aa 37-108 (protein)
chain: MSTVHEILCKLSLEGDHSTPPSAYGSVKAYTNFDAEYDASELKASMKGLGTDEDSLIEIICSRTNQELQEINRVYKEMYKTDLEKDIISDTSGDFRKLMVALAKGRRAEDGSVIDYELIDQDARDLYDAGVKRKGTDVPKWISIMTERSVPHLQKVFDRYKSYSPYDMLESIRKEVKGDLENAFLNLVQCIQNKPLYFADRLYDSMKGKGTRDKVLIRIMVSRSEVDMLKIRSEFKRKYGKSLYYYIQQDTKGDYQKALLYLCGGDDYPYDVPDYA
B8: Δ49-61: AnxA2 deletion of aa 49-61 (protein)
chain: MSTVHEILCKLSLEGDHSTPPSAYGSVKAYTNFDAERDALNIETAIKTNRSNAQRQDIAFAYQRRTKKELASALKSALSGHLETVILGLLKTPAQYDASELKASMKGLGTDEDSLIEIICSRTNQELQEINRVYKEMYKTDLEKDIISDTSGDFRKLMVALAKGRRAEDGSVIDYELIDQDARDLYDAGVKRKGTDVPKWISIMTERSVPHLQKVFDRYKSYSPYDMLESIRKEVKGDLENAFLNLVQCIQNKPLYFADRLYDSMKGKGTRDKVLIRIMVSRSEVDMLKIRSEFKRKYGKSLYYYIQQDTKGDYQKALLYLCGGDDYPYDVPDYA
B9: Δ37-66: AnxA2 deletion of aa 37-66 (protein)
chain: MSTVHEILCKLSLEGDHSTPPSAYGSVKAYTNFDAEQRQDIAFAYQRRTKKELASALKSALSGHLETVILGLLKTPAQYDASELKASMKGLGTDEDSLIEIICSRTNQELQEINRVYKEMYKTDLEKDIISDTSGDFRKLMVALAKGRRAEDGSVIDYELIDQDARDLYDAGVKRKGTDVPKWISIMTERSVPHLQKVFDRYKSYSPYDMLESIRKEVKGDLENAFLNLVQCIQNKPLYFADRLYDSMKGKGTRDKVLIRIMVSRSEVDMLKIRSEFKRKYGKSLYYYIQQDTKGDYQKALLYLCGGDDYPYDVPDYA
B10: Δ89-101: AnxA2 deletion of aa 89-101 (protein)
chain: MSTVHEILCKLSLEGDHSTPPSAYGSVKAYTNFDAERDALNIETAIKTKGVDEVTIVNILTNRSNAQRQDIAFAYQRRTKKELASALKLLKTPAQYDASELKASMKGLGTDEDSLIEIICSRTNQELQEINRVYKEMYKTDLEKDIISDTSGDFRKLMVALAKGRRAEDGSVIDYELIDQDARDLYDAGVKRKGTDVPKWISIMTERSVPHLQKVFDRYKSYSPYDMLESIRKEVKGDLENAFLNLVQCIQNKPLYFADRLYDSMKGKGTRDKVLIRIMVSRSEVDMLKIRSEFKRKYGKSLYYYIQQDTKGDYQKALLYLCGGDDYPYDVPDYA
B11: ΔR4: AnxA2 deletion of aa 269-339 (protein)
chain: MSTVHEILCKLSLEGDHSTPPSAYGSVKAYTNFDAERDALNIETAIKTKGVDEVTIVNILTNRSNAQRQDIAFAYQRRTKKELASALKSALSGHLETVILGLLKTPAQYDASELKASMKGLGTDEDSLIEIICSRTNQELQEINRVYKEMYKTDLEKDIISDTSGDFRKLMVALAKGRRAEDGSVIDYELIDQDARDLYDAGVKRKGTDVPKWISIMTERSVPHLQKVFDRYKSYSPYDMLESIRKEVKGDLENAFLNLVQCIQNKPLYPYDVPDYA

Molecular target: PCSK9-V5 (Homo sapiens, UniProt Q8NBP7)
Sequence (Q8NBP7 153-692): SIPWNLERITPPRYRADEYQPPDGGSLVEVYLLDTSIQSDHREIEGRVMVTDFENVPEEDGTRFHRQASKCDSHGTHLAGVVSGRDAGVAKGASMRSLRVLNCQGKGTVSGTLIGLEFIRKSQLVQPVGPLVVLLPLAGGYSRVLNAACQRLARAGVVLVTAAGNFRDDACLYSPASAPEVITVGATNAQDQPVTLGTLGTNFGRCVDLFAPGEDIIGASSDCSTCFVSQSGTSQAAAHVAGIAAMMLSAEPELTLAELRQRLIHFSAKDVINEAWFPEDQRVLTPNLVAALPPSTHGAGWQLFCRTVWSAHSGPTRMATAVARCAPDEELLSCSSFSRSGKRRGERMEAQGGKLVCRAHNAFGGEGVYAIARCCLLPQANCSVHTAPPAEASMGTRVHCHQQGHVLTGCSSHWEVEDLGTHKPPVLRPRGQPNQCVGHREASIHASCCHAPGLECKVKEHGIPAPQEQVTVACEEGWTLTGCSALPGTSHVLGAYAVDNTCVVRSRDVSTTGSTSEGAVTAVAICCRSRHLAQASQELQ
Sequence (Q8NBP7 31-152 partner limits assumed): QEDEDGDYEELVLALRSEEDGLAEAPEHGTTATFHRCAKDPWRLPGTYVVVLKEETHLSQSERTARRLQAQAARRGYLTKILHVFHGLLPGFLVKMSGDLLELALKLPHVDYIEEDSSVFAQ
Experiment: Far Western blot with PCSK9-V5 conditioned media
Type: binding
Parameters: made in house; host or cells: CHO-K1 cells (conditioned medium, not purified)
Conditions: lysates of cells overexpressing the construct
Procedure: Lysates (20 to 30 μg protein), media or purified AnxA2-(His)6 were heated in reducing or non-reducing Laemmli sample buffer, resolved by SDS-PAGE on 8% glycine gels and electro-transferred onto nitrocellulose membranes (GE Healthcare). Following 1 h incubation in 5% skim milk in Tris-Buffered Saline-0.1% Tween (TBST), membranes where incubated with conditioned media of CHO-K1 cells overexpressing either an empty vector (pIRES-V5), PC5A-V5, CHRD-V5, pIRES-D374Y, PCSK9-V5 or its V5-tagged mutants, or incubated with purified AnxA2-(His)6 for 3 h at room temperature. […] For competition experiments, 10 μg of His-tagged PCSK9 or CHRD were added to the PCSK9-V5 media before Far Western blotting. For PCSK9 binding requirements with the ˜33 kDa protein, 1M NaCl, 10 mg/ml heparin, 1M NaCl+10 mg/ml heparin, or 100 mM EDTA were added to the PCSK9-V5 conditioned media used for Far Western blotting.
Wild type human Annexin A2 (AnxA2) (ATCC #MGC-2257) and Annexin A1 (AnxA1) (ATCC #MGC-5095) were purchased from ATCC and subcloned into NheI/SacI digested pIRES2-EGFP vector. An HA epitope ([…]) was fused by PCR mutagenesis at the C-terminus of both AnxA1 and AnxA2. Two-steps PCRs were performed on AnxA2 cDNA to introduce point mutations (N62Q; S64A; K28S+D34N+E36S; R37S+E43H+K47M; 77RRTKK (SEQ ID NO: 26)>AATAK (SEQ ID NO: 27); ^77RRTKK (SEQ ID NO: 26)>AATAA (SEQ ID NO: 28); ^77RRTKKELASALK (SEQ ID NO: 29)>^77AATAAELASALA (SEQ ID NO: 30); 80KKELA (SEQ ID NO: 31)>GKPLD (SEQ ID NO: 32)), or amino acid (aa) deletions (Δ2-24, aa 2-24; ΔR1, aa 37-108; ΔR2, aa 109-192; ΔR3, aa 193-268; ΔR4, aa 269-339; Δ25-36, aa 25-36; Δ37-48, aa 37-48; Δ49-61, aa 49-61; Δ62-75, aa 62-75; Δ37-66, aa 37-66; Δ74-88, aa 74-88; Δ82-88, aa 82-88; Δ89-101, aa 89-101; Δ102-108, aa 102-108) into pIRES2-AnxA2-EGFP vector (see Table 3 above). In addition, using PCR, the AnxA2 segment aa 49-75 was swapped with the corresponding AnxA1 segment aa 58-84 [AnxA1 (aa 58-84)>AnxA2 (aa 49-75)]. Similar swaps were performed for the corresponding AnxA2 sequence with AnxA1 (AnxA1>AnxA2: aa 25-27; aa 28-30; aa 31-33; aa 34-36; aa 37-39; aa 40-42; aa 43-45; aa 46-48; aa 49-75; aa 49-61; aa 62-75). All final cDNA constructs were verified by DNA sequencing.

| Molecule | PCSK9-V5 binding by Far Western blot |
| --- | --- |
| Δ2-24: AnxA2 deletion of aa 2-24 | does not affect binding to PCSK9 |
| B1 | had no major effect |
| B2 | abolished PCSK9 binding |
| B3 | abolished PCSK9 binding |
| B4 | abolished PCSK9 binding |
| B5 | abolished PCSK9 binding |
| B6 | had no major effect |
| B7 | completely abrogated the interaction |
| B8 | abolished PCSK9 binding |
| B9 | abolished PCSK9 binding |
| B10 | abolished PCSK9 binding |
| B11 | had no major effect |
